Values quoted from earlier work, collected in paper PMC6314896 (Chembiochem : a European journal of chemical biology, 2018).

Tested on: trypsin
Details: both toxins under the same conditions

| Substance | stability to trypsin (in words) |
| --- | --- |
| ProTx-II | completely stable |
| ProTx-I | degraded rapidly |
